# Results taken from the RNAGym collection of RNA variant scans (doi:10.1073/pnas.2313332121).
# This sample holds only a part of the variants without activity.
# B1: TPR 5TU (parent)
# chain: GGAUCUUCUCGAUCUAACAAAAAAGACAAAUCUGCCACAAAGCUUGAGAGCAUCUUCGGAUGCAGAGGCGGCAGCCUUCGGUGGCGCGAUAGCGCCAACGUUCUCAACUAUGACACGCAAAACGCGUGCUCCGUUGAAUGGAGUUUAUCAUG
# Variants of: B1
# Experiment: polymerase ribozyme fitness, log enrichment relative to wild type (log ratio); higher = more active; in vitro selection for triplet polymerase activity
# Procedure, shortened: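 Each subunit of a heterodimeric triplet polymerase ribozyme was mutagenized into a library by PCR, transcribed, and subjected to one round of in vitro selection, run in triplicate. Libraries were annealed with a biotinylated primer, the partner subunit and triplets, incubated frozen at −7 °C, and extended constructs were gel-excised, captured on streptavidin beads and recovered by RT-PCR. Input and output libraries were sequenced on Illumina, keeping genotypes with ≥10 input reads and ≥1 read per output. Fitness is log base 2 of genotype enrichment divided by wild-type enrichment, from inverse-variance-weighted replicate averages.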
row,Variant,polymerase ribozyme fitness (log ratio)
1,A3U U13C A41U C76U C123U,-2.89
2,A3U G58A C87G U101C A113U C131G,≤ -4.2
3,A3U C14G A28C A91U A97C A122C,≤ -4.2
4,U4C G86A,-0.918
5,C5A A22U C75U C76A G88A A89C A91G C105U A119G U144G,≤ -4.2
6,A3G A24U U55A C85A,-2.17
7,A3C A22U A37G C54G C57U C85U G88C G117C C129U,≤ -4.2
8,C5A C57A A119U A137G U146G,-2.37
9,A3G A20U C36A C87G C129A U139C U146G,≤ -4.2
10,A3C U15A A19U C75U C87U,-1.71
11,A3G U33C G58C C116G U139A G141U U146C,≤ -4.2
12,C5A A26G C36A C96A,≤ -4.2
13,A3G C8G A23C C54A G80C G81A A89U C93G,≤ -4.2
14,U4G C57A A73G C87U,-0.214
15,A3G C14G A16C U82C C129G C131A,≤ -4.2
16,A3G A17U A47U U55G,-0.403
17,C5A A17U U56A U127A,-4.16
18,A3U G58A C96G,-1.09
19,A3C G141U,0.471
20,C5A A66G C96U A115G U139G G140A,≤ -4.2
21,A3G C18U G50C C87G A97G C99U U146G,≤ -4.2

row,Variant,polymerase ribozyme fitness (log ratio)
1,A3G C18U A49C C57U C85G G143U,≤ -4.2
2,A3G U15C C93G U146G,-2.23
3,A3G A12C C76G C93A C96A G136C,≤ -4.2
4,U4G U31A C54U G86C G92U U148G,≤ -4.2
5,A3C U6G C57U G74C C149U,≤ -4.2
6,U4G C85U,-0.873
7,U4A U55A A64C,≤ -4.2
8,C5A A24C G48U G65C C87U C99U A121G,≤ -4.2
9,A3C U6G G25U G83A,-3.47
10,C5A A20U C35U A91C U101A C105G U145G,≤ -4.2
11,U4G C35A C79A G94A U148G,≤ -4.2
12,U4G G11C U44G,≤ -4.2
13,U4G C27G A40U C116G A137C,≤ -4.2
14,C5A G11A G84A C95A C103U C116U,-1.5
15,C5A C54A C57A G58A G68A A89U C95G,≤ -4.2
16,A3G A24C U53A U61A C85G,≤ -4.2
17,C5A G59C C96A A98U,-0.127
18,U4G G42C C76G U90C C93G A113C,≤ -4.2
19,A3U G143U,-2.76
20,A3C C79U C93U C95U,≤ -4.2
21,A3U C54A,-2.21

row,Variant,polymerase ribozyme fitness (log ratio)
1,C5A A89G C95G C132U,-3.03
2,A3U U15C G81U A97U G128U,-3.58
3,C5A U7C G92C U139G,-1.27
4,C5A A16C A19U U61A,-2.61
5,A3C A17G C69G C116G A122G,-1.99
6,U4G U56G U144A,-1.19
7,C5A A23G U33G A66G G83A C87U A113G G124A U127C,-3.78
8,C5A C93G,-2.32
9,U4G G11C A40U G50C G83U,≤ -4.2
10,A3C A23C G74A C85A C103U U130A,≤ -4.2
11,U4A G92U,-0.358
12,A3C U7A C10U U53A G92C A138G,≤ -4.2
13,U4A A19C,0.332
14,A3G C38G G42U G59C G70C U78C C87A,≤ -4.2
15,A3G C27U G50A C51U C85A G140U,≤ -4.2
16,A3C C57U C93A,-1.56
17,C5A A16U G59U,-1.5
18,A3G C75A C93A A97U A98U U101G C118U,≤ -4.2
19,C5A C27U U55G G83A G92U U148A,≤ -4.2
20,C5A C57U G59C C96G U101G,-0.41
21,C5A A12C A19U U102G C116A A119G U135A G136C,≤ -4.2

row,Variant,polymerase ribozyme fitness (log ratio)
1,U4C G25U C79A C93G U111C,≤ -4.2
2,C5A C18U G86U,-1.4
3,A3G A30C C51U U55G U61A G68U G83C A142G,≤ -4.2
4,U4C C5A A24U A41G G46C C85U C96G,-3.3
5,A3U G59C,-0.00695
6,U4G A73C G92C,-4.15
7,U4A G11A A28U G65A C72U G80U G84C A91C A97C A106C C118U G141U,≤ -4.2
8,A3U C105G,-1.75
9,A3C U6G A22C A29C C85G C93U C108G G143A,≤ -4.2
10,U4C G11U U53C,-2.27
11,A3U A41U,-1.29
12,U4A A60C G71U G92C C108G G117A G124U A137C,≤ -4.2
13,A3G A23C A24U C51U U55G G84A C85A G92U,≤ -4.2
14,A3G A22U A40U U44C C96G C116U U134C,≤ -4.2
15,A3G A97C A107G,≤ -4.2
16,U4A U6A A17U A30U C105U U134G,≤ -4.2
17,C5A C36U C79U A121G,≤ -4.2
18,C5A G92C,-1.76
19,A3U C57U C87U A113C A119G,-3.73
20,U4C U7G C87A G100A U101A,≤ -4.2
21,A3U A12G C43U C54U G71U C79A A120C,≤ -4.2
